According to article PMC3154423:

How the values were obtained:
Experiment in all cases: ITC
[1] = target: Jun bZIP R263A;Fos bZIP R144A (human;human, UniProt P05412;P01100 252-315;137-200, R263A|R144A)
Jun-Jun bZIP K273A = Jun-Jun bZIP K273A (human, UniProt P05412 252-315, K273A)
[2] = target: Jun bZIP R272A;Fos bZIP R155A (human;human, UniProt P05412;P01100 252-315;137-200, R272A|R155A)
[3] = target: Jun bZIP R261A;Fos bZIP K148A (human;human, UniProt P05412;P01100 252-315;137-200, R261A|K148A)
[4] = target: Jun bZIP R261A;Fos bZIP R158A (human;human, UniProt P05412;P01100 252-315;137-200, R261A|R158A)
Sequence of Jun bZIP R261A;Fos bZIP R158A (P05412 252-315 R261A, chain 1 of 2): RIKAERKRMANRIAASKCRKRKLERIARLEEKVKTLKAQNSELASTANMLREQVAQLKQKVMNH
Sequence of Jun bZIP R261A;Fos bZIP R158A (P01100 137-200 R158A, chain 2 of 2): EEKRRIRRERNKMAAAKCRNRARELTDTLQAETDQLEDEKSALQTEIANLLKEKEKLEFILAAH

Sequence of Jun bZIP R261A;Fos bZIP K148A (P05412 252-315 R261A, chain 1 of 2): as the sequence (P05412 252-315 R261A, chain 1 of 2) above
Sequence of Jun bZIP R261A;Fos bZIP K148A (P01100 137-200 K148A, chain 2 of 2): as the sequence (P01100 137-200 R158A, chain 2 of 2) above, with K12A, A22R counted along it
Sequence of Jun bZIP R272A;Fos bZIP R155A (P05412 252-315 R272A, chain 1 of 2): as the sequence (P05412 252-315 R261A, chain 1 of 2) above, with A10R, R21A counted along it
Sequence of Jun bZIP R272A;Fos bZIP R155A (P01100 137-200 R155A, chain 2 of 2): as the sequence (P01100 137-200 R158A, chain 2 of 2) above, with R19A, A22R counted along it
Sequence of Jun-Jun bZIP K273A (P05412 252-315 K273A): as the sequence (P05412 252-315 R261A, chain 1 of 2) above, with A10R, K22A counted along it
Sequence of Jun bZIP R263A;Fos bZIP R144A (P05412 252-315 R263A, chain 1 of 2): as the sequence (P05412 252-315 R261A, chain 1 of 2) above, with A10R, R12A counted along it
Sequence of Jun bZIP R263A;Fos bZIP R144A (P01100 137-200 R144A, chain 2 of 2): as the sequence (P01100 137-200 R158A, chain 2 of 2) above, with R8A, A22R counted along it

B1: TRE duplex 15-mer (dsDNA)
DNA 1: CGCGTGACTCACCCC
DNA 2: GGGGTGAGTCACGCG
B1 gave a Kd [1] of 4.21 ± 0.2 µM, a Kd (Jun-Jun bZIP K273A) of 6.52 ± 0.75 µM and a Kd [2] of 2.67 ± 0.13 µM. It also gave a Kd [3] of 0.95 ± 0.06 µM and a Kd [4] of 0.76 ± 0.02 µM.
